Values quoted from earlier work in paper PMC3970081.

Target: KIF5B tail (Rattus norvegicus) (UniProt Q2PQA9)
Assay: SPR

Kv3.1 T1 domain, sequence (P25122 1-129): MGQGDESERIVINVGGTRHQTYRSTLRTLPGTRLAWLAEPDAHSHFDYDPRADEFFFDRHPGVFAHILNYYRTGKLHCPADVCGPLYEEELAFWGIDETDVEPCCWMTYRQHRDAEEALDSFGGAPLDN
KIF5B tail (Rattus norvegicus), sequence (Q2PQA9 758-963): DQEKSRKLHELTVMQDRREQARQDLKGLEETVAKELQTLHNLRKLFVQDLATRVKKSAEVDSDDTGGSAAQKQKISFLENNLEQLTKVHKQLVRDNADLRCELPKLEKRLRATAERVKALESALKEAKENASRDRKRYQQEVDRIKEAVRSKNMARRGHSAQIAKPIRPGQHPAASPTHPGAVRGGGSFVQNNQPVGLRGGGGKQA

Kd: 60 nM
Substance: Kv3.1 T1 domain (from UniProt P25122)
